Article PMC10863849, “A kinesin-13 family kinesin in Trypanosoma brucei regulates cytokinesis and cytoskeleton morphogenesis by promoting microtubule bundling” (PLOS Pathogens, 2024)

How the values were obtained:
Assay in all cases: native gel or EMSA; blue native gel electrophoresis (NativePAGE Novex 3-12% Bis-Tris), 225 ng purified recombinant protein in BRB80-DTT buffer plus 5% glycerol, silver-stained; oligomer size read from band mobility
[1] = target: recombinant hexahistidine-tagged full-length KIN13-5 (a.a. 1-719) (T. brucei)
GST = target: GST
[2] = target: motor domain of KIN13-5 (a.a. 170-536), hexahistidine-tagged (T. brucei)
[3] = target: GST-fused TbSpef1 (full-length TbSpef1 with N-terminal GST) (T. brucei)
[4] = target: recombinant hexahistidine-tagged KIN13-1 (T. brucei)
[5] = target: KIN13-5 CC-deletion mutant (a.a. 1-642), hexahistidine-tagged (T. brucei)
[6] = target: KIN13-5 SAM domain-deletion mutant (a.a. 71-719), hexahistidine-tagged (T. brucei)
[7] = target: the molecule itself

## recombinant hexahistidine-tagged full-length KIN13-5 (a.a. 1-719) (natural protein)
[1]
  stoichiometry N: 8

## GST (natural protein)
GST
  stoichiometry N: 2

## motor domain of KIN13-5 (a.a. 170-536), hexahistidine-tagged (domain or fragment)
[2]
  stoichiometry N: 4

## GST-fused TbSpef1 (full-length TbSpef1 with N-terminal GST) (natural protein)
[3]
  stoichiometry N: 4

## recombinant hexahistidine-tagged KIN13-1 (natural protein)
[4]
  stoichiometry N: 2

## KIN13-5 CC-deletion mutant (a.a. 1-642), hexahistidine-tagged (domain or fragment)
[5]
  stoichiometry N: 2

## KIN13-5 SAM domain-deletion mutant (a.a. 71-719), hexahistidine-tagged (domain or fragment)
[6]
  stoichiometry N: 4

B1: recombinant hexahistidine-tagged KIN-G (natural protein)
chain: MAKPLSGKAAPKNISVFLRVRPPVPRELKGGTFNNLVCDPSDPQRVTITRGGSARKGTKSFLFNRVFDPECTQQTIYNEVARGAVDAAFDGQHGVLFVYGQTGSGKTFTISNNDPEKPGVLQQSLRDIWDRFQADTEYDYSCTVSYVQLYNEMLTDLLDPQGGRVRIQLGPEGRGDVVLVTEASGASIERKVESYEDCLKYFYEGMDRKEMTSTKMNNTSSRSHTVFNFNLTRSAKVKTVDLSSAKANNEPVIALQGRLVVCDLAGSERASRTNAEGKTLDEATHINGSLLVLGKVVAALTESGSQHAPFRESKLTRILQYSLLGNGNTSIVVNCSPCDDSTEETLGAIMFGQRAIQIKQDAKRHEILDYKALYYQLLADLDSKNDRTLETALSEERTAYEDRIRVLEERIKILTSENDMLRRESSQLGGTGPVSGTSTASGAAAAAVAMGGDDANDWRSLTMKMRRAIEKLDADLKRTDKERVELAQFLALEKNKVNVLAQKLRAESLKHIMENKELTQRVTELSIDNAKLKGTDYISFQPSAACEDALPLSLDSPRRGTPSSGLSQSINVGDAYLQEQLDKANRQLRVLNEERVELIVYQMMASKAIRLLHAEKTSLANHLEKLKA
[7]
  stoichiometry N: ~4
